{"source": "patent US20070110756A1", "about": "“Method for modulating P53 activity via methylation” (priority 2005, published 2007)", "molecules": {"B1": {"name": "5′-gat ccg cac ctg gac gat gac gga tta cct tcc tgt caG TAATCCGTCATCGTCCAGGTG Ctt ttt g-3′ (nucleic acid)", "chain": "GATCCGCACCTGGACGATGACGGATTACCTTCCTGTCAGTAATCCGTCATCGTCCAGGTGCTTTTTG", "modifications": "expressed or natural sequence", "notes": "stem-loop siRNA targeting SET9, expressed from lentiviral pLSL-GFP vector"}}, "key": {"[1]": {"system": "methylated Lys372-p53 in 293F cells", "assay": "immunoprecipitation with anti-p53-Lys372me and p53 western blot in 293F cells", "type": "cell-based", "conditions": "Adr-treated vs untreated", "procedure": "The in vivo methylation of p53 at lysine 372 under conditions in which the intracellular concentration of Set9 was unaltered was also determined. 293F cells were treated with adriamycine (Adr), an agent that induces DNA damage resulting in the activation of a p53-responsive pathway. Cell extracts prepared from untreated and Adr-treated cells were then compared for total amounts of p53 protein using monoclonal p53 antibody. […] Both extracts were also subjected to immunoprecipitation with anti-p53-Lys372me antibodies followed by western blot analysis with p53-specific antibody."}, "[2]": {"system": "U2OS cells", "assay": "Annexin V apoptotic staining after DNA damage", "type": "cell-based", "excerpt": "This was directly tested by measuring the p53-dependent apoptotic response induced by DNA damage. […] The treatment of Set9-overexpressing cells with Adr further increased the Annexin V staining. […] Furthermore, Set9-mediated regulation of cell cycle and apoptosis was p53-dependent, because in the absence of p53, transfected Set9 was unable to induce p21 gene expression in H1299 (FIG. 4) or apoptosis in Saos-2 cells in response to DNA damage."}, "[3]": {"system": "methylated p53 bound to the p21 promoter in U2OS cells", "assay": "ChIP assay of methylated p53 at the p21 promoter", "type": "cell-based", "conditions": "0.5 μM of Adr, time course", "procedure": "U2OS and USOS Set9 siRNA cells were treated with 0.5 μM of Adr and collected at the indicated time points for a CHIP assay performed using anti-p53-Lys372me antibody. The amounts of precipitated p21 promoter were determined by quantitative RT-PCR.\nIt was observed that p53 methylation likely precedes acetylation. Therefore, it was expected that p53 methylation must occur at very early times after DNA damage. […] At the indicated time periods, cells were harvested, and DNA-protein complexes were cross-linked and subjected to chromatin immunoprecipitation (ChIP) analysis, initially using anti-p53-Lys372me antibodies. To increase the specificity of ChIP, the anti-p53-Lys372me immunoprecipitates were eluted from the beads with 1% SDS, diluted with immunoprecipitation buffer and then subjected to a second round of immunoprecipitation using anti-p53 antibody.\nChIP assay on U2OS and U2OS cells expressing siRNA-Set9 was performed using established methods (Barlev, et al. (2001) supra). Briefly, cells were cross-linked with 1% formaldehyde, neutralized with 0.125 M glycine and harvested by scraping. The chromatin fraction was prepared by incubating the cells in lysis buffer (10 mM Tris pH 8.0, 200 mM NaCl, 10 mM EDTA, 0.5 mM EGTA, 1 mM PMSF). The insoluble fraction was sonicated and subjected to immunoprecipitation with anti-p53-Lys372me serum. […]"}, "[4]": {"biological_target": "T1, Set9 construct composed of residues 52-366 (UniProt Q8WTS6 52-366)", "T1 sequence (looked up)": "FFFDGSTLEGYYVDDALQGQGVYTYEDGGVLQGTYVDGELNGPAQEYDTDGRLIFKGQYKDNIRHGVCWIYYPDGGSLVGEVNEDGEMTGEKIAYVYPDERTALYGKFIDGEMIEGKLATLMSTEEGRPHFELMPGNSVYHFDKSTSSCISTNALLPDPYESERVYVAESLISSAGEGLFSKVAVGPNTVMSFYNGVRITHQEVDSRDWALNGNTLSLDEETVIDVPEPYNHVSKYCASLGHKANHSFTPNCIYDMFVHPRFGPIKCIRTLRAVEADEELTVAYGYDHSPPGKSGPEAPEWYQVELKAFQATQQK", "assay": "cell-based or functional assay"}, "[5]": {"system": "p53 in U2OS cells", "assay": "p53 Lys372 methylation and total p53 levels in U2OS cells", "type": "cell-based"}, "[6]": {"system": "p21 gene expression in U2OS cells", "assay": "p21 gene expression by quantitative real-time PCR", "type": "cell-based, human", "conditions": "normalized to GAPDH", "procedure": "U2OS cells were stably transfected with FLAG-Set9 wild-type, FLAG-Set9 mutant or siRNA against Set9. Non-transfected cells served as control. Cells were mock-treated, or treated with 0.3 μM of 5-fluoro-uracil (5-FU) or adriamycine (Adr) as indicated. p21 (FIG. 3A), BAX (FIG. 3B) and MDM2 (FIG. 3C) gene expression was analyzed by quantitative real-time PCR using primers specific for the coding region. Shown are the relative values normalized to GAPDH signal.\nTotal RNA was extracted using the TRI reagent (INVITROGEN) according to the manufacturer's instructions. First-strand complementary DNA was synthesized using READY-TO-GO You-Prime First-Strand Beads (Amersham Biosciences, Piscataway, N.J.).\nReal-time PCR was performed with the DNA ENGINE OPTICON 2 System (MJ Research, Waltham, Mass.) according to the manufacturer's instructions. The primers for human p21 (Cip1/WAF1′) and GAPDH (GENBANK accession numbers NM_000389 and NP_002037, respectively) were designed using the Primer3 program. […] Fluorescence was measured at the end of the elongation phase at 79° C. Expression levels were calculated as a ratio between p21 and GAPDH signals. […]"}}}
{"molecule": "COc1cccc2c1C(=O)c1c(O)c3c(c(O)c1C2=O)C[C@@](O)(C(=O)CO)C[C@@H]3O[C@H]1C[C@H](N)[C@H](O)[C@H](C)O1", "note": "[Adr, adriamycine]", "values": [{"measurement": "intracellular concentration of methylated Lys372-p53 protein", "setting": "[1]", "result": "increased the intracellular concentration of methylated Lys372-p53 protein"}, {"measurement": "levels of intracellular p53", "setting": "[1]; monoclonal p53 antibody", "result": "did not increase the levels of intracellular p53"}, {"measurement": "number of cells positively stained for Annexin V", "setting": "[2]", "result": "increased the number of cells positively stained for Annexin V"}, {"measurement": "amount of methylated p53 bound to the p21 promoter", "setting": "[3]", "result": "increased as early as 1.5 hours after DNA damage"}]}
{"molecule": "LKSKKGQSTSRHKKLMFKTY", "note": "[wild-type p53 20-mer]", "values": [{"measurement": "enzymatic activity, methyltransferase assays with 3H-labeled S-adenosyl-L-methionine (AdoMet)", "setting": "[4]", "result": 6, "unit": "fold"}]}
{"molecule": "B1", "values": [{"measurement": "total levels of p53", "setting": "[5]", "result": "decreased the total levels of p53"}, {"measurement": "Lys372 methylation of p53", "setting": "[5]; upon Adr treatment", "result": "decreased Lys372 methylation of p53"}, {"measurement": "p21 expression upon DNA damage", "setting": "[6]", "result": "impaired p21 expression upon DNA damage"}, {"measurement": "amount of methylated p53 bound to the p21 promoter", "setting": "[3]", "result": "did not exhibit a significant increase in methylated p53 at the p21 promoter"}]}
